Test results published in PMC9718841.

Key:
[1] = molecular target: recombinant human CALM2 protein (human) (UniProt P0DP24); assay: MST; labelled CALM2 at 500 nM, peptide in 16-point serial dilution, 25 °C; in the absence (1 mM EDTA, Apo-CALM2) and presence of Ca2+
[2] = molecular target: recombinant human CALM2 protein (human) (UniProt P0DP24); assay: MST; CaCl2

peptide TLIQ2, sequence (O00206 whole entry, looked up, tested part not stated): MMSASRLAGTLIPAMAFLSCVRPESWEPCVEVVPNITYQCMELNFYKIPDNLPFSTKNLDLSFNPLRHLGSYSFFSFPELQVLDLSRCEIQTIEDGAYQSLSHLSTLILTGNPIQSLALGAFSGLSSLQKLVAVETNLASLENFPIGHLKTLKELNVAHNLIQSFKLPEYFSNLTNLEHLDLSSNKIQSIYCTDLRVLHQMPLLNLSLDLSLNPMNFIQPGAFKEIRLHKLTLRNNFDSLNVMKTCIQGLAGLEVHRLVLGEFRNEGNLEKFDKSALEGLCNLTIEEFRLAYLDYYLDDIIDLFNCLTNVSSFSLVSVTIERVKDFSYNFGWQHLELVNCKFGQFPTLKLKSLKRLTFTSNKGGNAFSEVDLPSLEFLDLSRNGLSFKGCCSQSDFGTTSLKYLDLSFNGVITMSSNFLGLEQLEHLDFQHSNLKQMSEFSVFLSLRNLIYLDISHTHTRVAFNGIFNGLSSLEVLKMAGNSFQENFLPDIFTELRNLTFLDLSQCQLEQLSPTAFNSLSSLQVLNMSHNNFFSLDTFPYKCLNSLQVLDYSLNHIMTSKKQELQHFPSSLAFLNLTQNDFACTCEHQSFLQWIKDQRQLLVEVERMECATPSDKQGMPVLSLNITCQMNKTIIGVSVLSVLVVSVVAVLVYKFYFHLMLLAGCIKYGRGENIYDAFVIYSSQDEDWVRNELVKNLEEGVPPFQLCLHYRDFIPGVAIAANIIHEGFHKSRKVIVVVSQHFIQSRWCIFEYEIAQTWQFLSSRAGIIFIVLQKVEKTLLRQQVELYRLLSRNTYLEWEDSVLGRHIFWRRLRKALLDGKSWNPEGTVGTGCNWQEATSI

Kd [1] [µM] | Kd [2] [µM] | Substance
6.69 | – | peptide TLIQ2
– | 9.03 | peptide TLIQ2 (from UniProt O00206)
